The record followed here is US20050003403A1 (IBC PHARMACEUTICALS, published 2005).

The target in assay [1] is T1, carcinoembryonic antigen (CEA) (UniProt P06731 35-685, limits assumed).
T1 construct: Coated on ELISA wells (0.5 ug/well), injected in BIAcore, or mixed in solution for SE-HPLC
T1 sequence (looked up): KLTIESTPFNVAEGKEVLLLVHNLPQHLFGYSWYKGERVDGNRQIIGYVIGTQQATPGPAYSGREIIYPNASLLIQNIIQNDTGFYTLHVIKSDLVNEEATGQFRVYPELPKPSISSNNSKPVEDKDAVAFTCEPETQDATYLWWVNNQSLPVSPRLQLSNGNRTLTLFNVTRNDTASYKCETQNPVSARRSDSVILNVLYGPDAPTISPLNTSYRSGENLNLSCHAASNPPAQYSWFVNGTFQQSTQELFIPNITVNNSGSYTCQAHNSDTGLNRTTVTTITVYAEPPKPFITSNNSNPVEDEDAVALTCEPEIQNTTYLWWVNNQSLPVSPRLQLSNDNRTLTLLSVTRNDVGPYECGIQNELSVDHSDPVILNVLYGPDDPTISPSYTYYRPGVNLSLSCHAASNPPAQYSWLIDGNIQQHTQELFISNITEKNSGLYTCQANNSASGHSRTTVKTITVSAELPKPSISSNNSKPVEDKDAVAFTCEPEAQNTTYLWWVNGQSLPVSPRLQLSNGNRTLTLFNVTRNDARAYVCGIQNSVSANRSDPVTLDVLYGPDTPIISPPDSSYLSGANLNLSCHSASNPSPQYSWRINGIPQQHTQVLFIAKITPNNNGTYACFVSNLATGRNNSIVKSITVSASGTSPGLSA
Put plainly: competitive ELISA, CEA-coated wells (0.5 ug/well), competitor HRP-conjugated hMN-14 IgG (1 nM). The procedure: HRP-conjugated hMN14 IgG (1 nM) was mixed with either BS14HP, BS1.5H (a bispecific diabody, monovalent for CEA and monovalent for HSG, derived from the same variable domains as BS14HP) or hMN14 F(ab′)₂ at concentrations ranging from 1-250 nM, prior to incubation in CEA-coated (0.5 μg/well) wells. The % inhibition is plotted vs. nM concentration of sample.
The CEA binding of BS14HP was analyzed in a competitive ELISA and compared to BS1.5H and hMN-14 F(ab′)₂, which have one and two CEA binding groups, respectively (FIG. 6). HRP-conjugated hMN-14 IgG (1 nM) was mixed with either BS14HP, BS1.5H or hMN-14 F(ab′)₂ at concentrations ranging from 1 to 250 nM, prior to incubation in CEA-coated (0.5 μg/well) wells. The IC₅₀ for BS14HP was 2.7 nM which is close to 2.0 nM for hMN14 F(ab′)₂.

For assay [2], the target named is T1, carcinoembryonic antigen (CEA). The assay is described as follows: BIAcore, hBS14 captured on HSG sensorchip, then CEA injected. (In general: In SPR one partner is held on a chip, and binding of the other changes the refractive index at the surface.)

B1: BS14HP (bispecific antibody)
chain 1: EAEAEFMEVQLVESGGDLVKPGGSLKLSCAASGFTFSIYTMSWLRQTPGKGLEWVATLSGDGDDIYYPDSVKGRFTISRDNAKNSLYLQMNSLRAEDTALYYCARVRLGDWDFDVWGQGTTVSVSSGGGGSDIQLTQSPSSLSASVGDRVTITCKASQDVGTSVAWYQQKPGKAPKLLIYWTSTRHTGVPSRFSGSGSGTDFTFTISSLQPEDIATYYCQQYSLYRSFGQGTKVEIKRLEGGGSEVQLVESGGGVVQPGRSLRLSCSASGFDFTTYWMSWVRQAPGKGLEWIGEIHPDSSTINYAPSLKDRFTISRDNAKNTLFLQMDSLRPEDTGVYFCASLYFGFPWFAYWGQGTPVTVSVDHHHHHH
chain 2: EAEAEFDIQLTQSPSSLSASVGDRVTITCKASQDVGTSVAWYQQKPGKAPKLLIYWTSTRHTGVPSRFSGSGSGTDFTFTISSLQPEDIATYYCQQYSLYRSFGQGTKVEIKRGGGQFMEVQLVESGGGVVQPGRSLRLSCSASGFDFTTYWMSWVRQAPGKGLEWIGEIHPDSSTINYAPSLKDRFTISRDNAKNTLFLQMDSLRPEDTGVYFCASLYFGFPWFAYWGQGTPVTVSGGGGSDIVMTQSPSSLAVSPGERVTLTCKSSQSLFNSRTRKNYLGWYQQKPGQSPKLLIYWASTRESGVPDRFSGSGSGTDFTLTINSLQAEDVAVYYCTQVYYLCTFGAGTKLELKRLDHHHHHH
notes: Non-covalent heterodimer with two CEA sites and one HSG site; The alpha-factor signal peptide is removed on secretion; also called bispecific trivalent heterodimer; hMN-14 x hMN-14 x 679 produced in Pichia pastoris
For orientation: IC50 means the midpoint of a concentration-inhibition curve. A low value points to inhibition by little substance. In turn, B1 displayed an IC50 in assay [1] of 2.7 nM.

B2: hBS14 (bispecific antibody)
chain 1: MEVQLVESGGDLVKPGGSLKLSCAASGFTFSIYTMSWLRQTPGKGLEWVATLSGDGDDIYYPDSVKGRFTISRDNAKNSLYLQMNSLRAEDTALYYCARVRLGDWDFDVWGQGTTVSVSSGGGGSDIQLTQSPSSLSASVGDRVTITCKASQDVGTSVAWYQQKPGKAPKLLIYWTSTRHTGVPSRFSGSGSGTDFTFTISSLQPEDIATYYCQQYSLYRSFGQGTKVEIKRLEGGGSEVQLVESGGGVVQPGRSLRLSCSASGFDFTTYWMSWVRQAPGKGLEWIGEIHPDSSTINYAPSLKDRFTISRDNAKNTLFLQMDSLRPEDTGVYFCASLYFGFPWFAYWGQGTPVTVSVDHHHHHH
chain 2: MDIQLTQSPSSLSASVGDRVTITCKASQDVGTSVAWYQQKPGKAPKLLIYWTSTRHTGVPSRFSGSGSGTDFTFTISSLQPEDIATYYCQQYSLYRSFGQGTKVEIKRGGGQFMEVQLVESGGGVVQPGRSLRLSCSASGFDFTTYWMSWVRQAPGKGLEWIGEIHPDSSTINYAPSLKDRFTISRDNAKNTLFLQMDSLRPEDTGVYFCASLYFGFPWFAYWGQGTPVTVSGGGGSDIVMTQSPSSLAVSPGERVTLTCKSSQSLFNSRTRKNYLGWYQQKPGQSPKLLIYWASTRESGVPDRFSGSGSGTDFTLTINSLQAEDVAVYYCTQVYYLCTFGAGTKLELKRLDHHHHHH
notes: 79.4 kDa heterodimer of polypeptide 1 and polypeptide 2, produced in SP2/0, YB2/0 or NS0 cells; Bivalent for CEA, monovalent for HSG; also called bispecific trivalent heterodimer expressed in myeloma cells; hMN-14 x hMN-14 x 679
Turning to B2, in assay [2], the binding result is “binds”.

B3: BS1.5H (bispecific antibody)
chain 1: MEVQLVESGGDLVKPGGSLKLSCAASGFTFSIYTMSWLRQTPGKGLEWVATLSGDGDDIYYPDSVKGRFTISRDNAKNSLYLQMNSLRAEDTALYYCARVRLGDWDFDVWGQGTTVSVSSGGGGSDIQLTQSPSSLSASVGDRVTITCKASQDVGTSVAWYQQKPGKAPKLLIYWTSTRHTGVPSRFSGSGSGTDFTFTISSLQPEDIATYYCQQYSLYRSFGQGTKVEIKRLEHHHHHH
chain 2: MEVQLVESGGGVVQPGRSLRLSCSASGFDFTTYWMSWVRQAPGKGLEWIGEIHPDSSTINYAPSLKDRFTISRDNAKNTLFLQMDSLRPEDTGVYFCASLYFGFPWFAYWGQGTPVTVSGGGGSDIVMTQSPSSLAVSPGERVTLTCKSSQSLFNSRTRKNYLGWYQQKPGQSPKLLIYWASTRESGVPDRFSGSGSGTDFTLTINSLQAEDVAVYYCTQVYYLCTFGAGTKLELKRLEHHHHHH
In assay [1], B3 showed an IC50 of 10 nM.

B4: hMN-14 F(ab')2 (other)
VH: EVQLVESGGGVVQPGRSLRLSCSASGFDFTTYWMSWVRQAPGKGLEWIGEIHPDSSTINYAPSLKDRFTISRDNAKNTLFLQMDSLRPEDTGVYFCASLYFGFPWFAYWGQGTPVTVS
VL: DIQLTQSPSSLSASVGDRVTITCKASQDVGTSVAWYQQKPGKAPKLLIYWTSTRHTGVPSRFSGSGSGTDFTFTISSLQPEDIATYYCQQYSLYRSFGQGTKVEIKR
notes: F(ab')2 of humanized anti-CEA hMN-14, 100 kDa; The VH in the construct ends ...VTVS
Consider B4, for which, in assay [1], the IC50 amounted to 2 nM.
